Results taken from patent US20020132976A1, “Immunogenic peptides derived from prostate-specific antigen (PSA) and uses thereof” (priority 2000, published 2002).

Assays:
[1] = molecular target: membrane-bound HLA-A0201 molecule on T2 cells (human); experiment: T2 cell HLA-A0201 stabilisation, 125.0 µM peptide, BB7.2 staining, flow cytometry; details: remark: other sources report otherwise
[2] = molecular target: membrane-bound HLA-A0201 molecule on T2 cells (human); experiment: T2 cell HLA-A0201 stabilisation, 125.0 µM peptide, BB7.2 staining, flow cytometry; analysis did not include the 3 hr de-stabilization step; details: remark: other sources report otherwise

| Fluorescence Index (FI) [1] | Fluorescence Index (FI) [2] | Binder |
| --- | --- | --- |
| 2.7 |  | KLQCVDLHV [CLP-316] |
|  | 0.2 | PLYDMSLLK [CLP-320] |
